Assay: label from the status in PepcDB records

MSHWLILPILLPLFAGSLLLLPLAERWQRGLSLLAALALIPLSLLLIRTAASGDLSVYALGNWAAPFGIVLMLDRLAALMLLATAVLGSAALIYALRGEDRLGKHFHALFQFQLLGINGAFLTGDLFNLFVFFEILLIASYALLLHGGGAERVRSGLHYVILNLVGSAFFLIAVGTLYGLTGTLNMADMAQKIAMADAERAPLLAAAGLLLLVVFALKAALLPLYFWLPRAYATASAPVAALFAIMTKVGIYSILRVYTLVFGDAAGELANLAQAWLWPLALATLGLGAIGALAARTLQGLLAYLVVVSAGTLLAGVALGSERALAASLYYLLHSTWIAGGLFLLADLVARQRGDKAGDLVQGPALQNPRLLGGAFFIGAIAVAGLPPLSGFFGKVMLLQSVAPGSQALALWSVVLGSGLVALVALSRAGSTLFWRTGHTVLGSAELDHGRLFACILLLSAGPLLVFAAKPLLAYVQATAAQLHDLDLYRQIITRGGAA
protein production: failed

MELTLALVIFVICYLLIMAETFNRAVVACLGGVLMLFVGIYPLDAAFLQYIDWHTITLLLSMMILVSITSQSGFFEYMAIRLAQKVDGRPIPLLIVVAGITAIGSAFLNNVTMVLLIVPIVLTLTNLLKLNAVPFLLTLVMASNIGGTATLIGDPPNLMIGQAVAHLSFNDFLLHLGPIVAVIFFVVLIGLILYYRRQLSVTAEDRSRLRGVDPTSYLKNRPLLIKSMTVLTLTTIGFTIQPFLPVELTSIAMAGALLLMLITQNEQDMEGVFRSVEWVTLFFFIGLFMLVGGIKEVGIIDEIAKAIIYYTEGDIPKTSLFILWGSGILSGFVDNIPFVAAMIPVILEFQEYGVGELDPLWWSLALGACLGGNATVIGATANVIVAGLAVQAKQSFSYLEFLKVGAPVALVSFLLCTVYLYIRYLIYF
protein production: failed

EIEICPKVTQSIHIEKSDTAADTYGFSLSSVEEDGIRRLYVNSVKETGLASKKGLKAGDEILEINNRAADALNSSMLKDFLSQPSLGLLVRTYPELEEGVE
protein production: not failed

MADDIRILMCPPDHYDVDYVINPWMEGNIHKSSQERAVEQWKKLHQTIKECAIVDLVKPAKGWPDMVFTANAGLVLGENVVLSRFYHKERQGEEPYFKAWFEENGFTVYELPQDLPFEGAGDALFDREGRWLWAGYGFRSELDSHPYIAKWLDTEVVSLRLIDERFYHLDTCFCPLSGGYLLYYPPAFDAYSNRVIEMRIPPEKRIIVEELDAVNFACNAVNVNDIIIMNLVSRTLKEKLAEAGFKVRETPLTEFLKAGGAAKCLTLRVTEPILPDVHATVSIESRVIRMEGHLLDAGILNQALDLVVENSGSFRVLNFNLGVERNSTSSAEVRVSAPSHQIMEEIMTELIDLGAVPPPQELCDINTETVTQGGVAPDDFYVSTIYPTEVRVNCEWVQVTGQRMDAAIVVTSNPPSARCVLLRDLQVGDRVMVGVEGIRTIKKVESHEGGTRKENKEFAFMAAGVSSERRVELLVEQIAWEMRQIRDQGGKIVVTAGPVVIHTGGAQHLSHLVREGYVHALLGGNAIAVHDIEQATMGTSLGVDMQRGIPVRGGHRHHLKIINSVRRYGGIRQAVEAGFISKGVMYECVKNNIPYCLAGSIRDDGPLPDTEMNLVRAQSRYSELIQGADMILMLSSMLHSIGVGNMTPSGVKMVCVDINPAVVTKLSDRGSVESVGVVTDVGLFLSLLVRQLQQLTRPYSLAETL
protein production: failed

MLLEGLLFVLAAGIFTAIVCGFGTLPFFFVDEISDRVTVALWGLAGGIMLFASLFGFIFEGLRDGTVFEVGAGLVVGVVVVVVADRIITGYEFEPRDIPDADFRKLVLIVGVLTVHSFPEGVALGVAFADLGIEGDLVLAGLAIPGLAIFITAAISIQNIPEGLAVAIPLHTYGIANWKIFGWAVFSSIPQPIGAGIAYVFVTTAREFLPFGFGFASGAMIFLVLHDIFPEGLDHGSDLPGHGRRELLVGIAVGVAIMLPVMLLTE
protein production: failed

MSVDPACPQSLPCFEASDCKESSPMPVICGPEENYPSLQMSSAEMPHTETVSPLPSSMDLLIQDSPDSSTSPKGKQPTSAENSVAKKEDKVPVKKQKTRTVFSSTQLCVLNDRFQRQKYLSLQQMQELSNILNLSYKQVKTWFQNQRMKSKRWQKNNWPKNSNGVTQKASAPTYPSLYSSYHQGCLVNPTGNLPMWSNQTWNNSTWSNQTQNIQSWSNHSWNTQTWCTQSWNNQAWNSPFYNCGEESLQSCMHFQPNSPASDLEAALEAAGEGLNVIQQTTRYFSTPQTMDLFLNYSMNMQPEDV
protein production: not failed

MVSIIIPIYNVQDYINDCLYSVYTQTYSEIEVILVNDCTPDNSMLIAHSNIEKLKKRFNVKIIDHKSNKGLSAARNSGVKEATGEWVYFLDSDDEITPDCIECFVRLAERYLSVDFIVGGIRVIGRNISYRLTTSEYVIGNDNILKCYISGMWYEMAWNKLIRKEYFVSNNLWFKEGLLHEDQLFSYQLATTALTMATVNKPTYIYKMRMSGAITSSNGRKNFDSFICILEYMVYSVMQKYSTSSVTLEYAQIIRFSYSILLSLYGKHNLTEMEVVNYELKVDRICRIVTFYKCKLPVPIQIKLTIIKLPQTMRKVLLKWHNKKIQKKLEHHHHHH
protein production: not failed

MATGTATEKPKIVWNEGRHRFETDDHEAFIEYKMKNDGKVMDLVRTFVPPSKAGLGLASHLCVAAFEHASEHSFSIIPTCSYVSVYISSFLKKLR
protein production: failed

MFIYGSDRLGGKMDINGFIEELDSLYTERRINDVEPFFNESIEQAKKENDLAAQFTILNEMMGFFRDTSQFEKSIKACNDCIELMKKMGIEGTVDYATSLQNVANAYRAAGKLAESLEVYKEVFSIYNENIPSDDYRMASLNNNIALLYQEMNDFPMAVQHLKKALSIIEKIEGMDIEVATTYTNLAASLIEINQASQAEDYLKKALEIFDRDEVKNFHYSGALCAMASVKCSLNQYEEAAKLYEKALPEIEANMGRGSAYNITKENLAKVFDKIKEEKKELTGIELAKSFYEEYGKDMIHNNFSEYEDKIAVGFVGEGSERFGFDDVYSRDHDFGPGFCMWITEDVYEKIGEKLQDEYNKLPKSYKGITRVDTIMAEGRVGVCVVEDFYKKYTGSGDGNLTLEQWINLEDYKIATVTNGEVFRDDLGYFSKIRRKFENQPFQARLVKLARQLGAMAQTGQSNYERAMARKDYVTAQICISDFMKETMKCVYILNNKFAPYYKWLFKGVSRLDGTEKIVSLLEKLSQLPAQKNAWDGYLYDNTKFNEKDEKAIIMEEIAKIIIDKLLELKLIKNRNSNFLNDYVRPIMDLAEGKVEMFDREKTIDKIVKLEFEAFDKVQNVGGRASCQNNWPFFYVMRKSQYMTWTDEMLECICNLWEENKAKGWNMITEKYGRMMEHTSPEEYKKIKDNFPEKSERTIAIVNQIAQIQVDWMKDFAKSYPKLASNARDITSDADQIDNTSYETYLKGELLTYSEELLKLYAQFIVNLAREGKNLAYMTIENTAHLQGYATLEAAESSIR
protein production: failed

MSTFGKLFRVTTYGESHCKSVGCIVDGVPPGMSLTEADIQPQLTRRRPGQSKLSTPRDEKDRVEIQSGTEFGKTLGTPIAMMIKNEDQRPHDYSDMDKFPRPSHADFTYSEKYGIKASSGGGRASARETIGRVASGAIAEKFLAQNSNVEIVAFVTQIGEIKMNRDSFDPEFQHLLNTITREKVDSMGPIRCPDASVAGLMVKEIEKYRGNKDSIGGVVTCVVRNLPTGLGEPCFDKLEAMLAHAMLSIPASKGFEIGSGFQGVSVPGSKHNDPFYFEKETNRLRTKTNNSGGVQGGISNGENIYFSVPFKSVATISQEQKTATYDGEEGILAAKGRHDPAVTPRAIPIVEAMTALVLADALLIQKARDFSRSVVH
protein production: not failed

MKPTLFVLAAGMGSRYGSLKQLDGIGPGGDTIMDYSVYDAIRAGFGRLVFVIRHSFEKEFREKILTKYEGRIPVELVFQELDRLPEGFSCPEGREKPWGTNHAVLMGRDAIREPFAVINADDFYGRNGFEVLARKLMTLEGKQGEYCMVGYRVGNTLSESGGVSRGVCQVDEKHLLTGVVERTGIERTDGTISFRDETGKICTLAEDAPVSMNMWGFTPDYFDYSEELFINFLNAHGQEPKSEFFIPFVVNDLIRSGRASVEVLDTTARWFGVTYSDDRPGVVAKLRELTEAGEYPTKLF
protein production: not failed

MSTVPISGRSQIMLVQDSEILSSSALQYKQFLSKVKISKNATSTAQVRRVGQKVAAATMLYLKQNGLGDMASQMKWEFNVVEDKAVNAFCMPGGKIVVYTGLLKLVGSDAELATVISHEVSHAVARHSNERISQEYLRQMGGNILGAAVSNKSAALQTVIGQAYGIGSQVLITLPYNRKQEYEADKIGLVFMAMAGYNPNAAITFWQKMAAQGNGRVEFLSTHPSDANRIAAIRQYMPEAMKHYKSKLEHHHHHH
protein production: not failed

MRKRIFWLLPDLASARRTMDDLLLARIENSHIHFVGRDGADMTGLHEANLFQTSDIVHAAEMGLMVGGGVGIVAGVVVAMFPIVSDSPQWGLVGVLAVLGAVFGAWAASMIGSSAPNSRLRSFEKDIEAGKLLLMVDVPRGRVEEVEALLQKAHPEASFAGLDPAVPAFP
protein production: failed

MMENPQQGLEMRSIVVAYYREQAVSTLVKTLIFIVTLLFIGRSFSEEKNYDMQQLSAQQAYENGRLLRAQFKNLAAREYLKYAADLGEPNAAYLYAMEVANYRTTIRTPPESQHYLLLAAQGGSRQAMRVLYQNGEWLRAAERSLWQQTYYDTLIELGSREPSQAAYELALFHQKDNPKLAQHYLTIAVEFEHPAALMLMAQQIEQGEGSYPMPGSRATEARKTYLKAAQTGYIPAIRNYIQLLENKGKYQDAYYWRQQAVQRGDLTSLVAMGGILSGQSEFYRFVEPDLKQAKAYFNRYLEVAGSDRLSHVYQNSQKQLLDISMQLNGHEKEIAEKIELQLENYQPFFNHDAYWDN
protein production: failed

LKKLPAEIYLIDEQAKTSVQDFEYASYYHSSATVNTGTFNECRSADLVLFFQEEMSNESFSNEDNLALIKEKVKKMMATGFQGIVLVATAESNIVASLIKHFSGLPANQIITPG
protein production: failed

MVHCADQGMARAARDLAGALIASSAVLYNQFDAWSRSHAAALEAVRRGGDTEGEAWLLTGLGQLRYEQDKFEESYAYFADALRLFDERGDVPRGAALSLAGMGSARREQARFAEALQLLSSALERYEQTDDVGARARVLYGIGYVHREQGRGAQAWEALSGALGLYRTASDRHGEALTLRSLALCRRADGAWADAERLLHEALRIFVGLQDTFGVMYTEQSLAKVELRRGHLEKARERLGRCLEVARERQDRFGEALVLRTLGEWCLAAGETERAREPLERALAAWEALDLPLWGARTAWDLAEVSASRATNRRRGQPARRRWRPSARWTAGRRGSARTKACRTR
protein production: failed

MLYFIPTPIGNLSDISFRALELLKTCDLVFCEDTRVSKSLISLLNTKFHTDIHISKFIALHSHNEKEVLASIDLKIFEKNVAYLSDAGMPGISDPGKALVEFAQENNITYEILPGA
protein production: not failed

MNKITSAFIRVLRQSSSSGGTGNLLGRQLSYKSDLSLDKIYPGARLQIYTPPPPPSGSDKFSGFIPMDRLEITYSRSSGPGGQHVNTVNTKVDVRFKVAQADWIPEQTRQKLLKVLANRITKDGYFYIKSDLTRSQQMNLADALEKLRTIIRSQEAVAPAPPSEETLEKLRRRQERAVRERLQLKRGRAQVKADRQGPSGLDL
protein production: failed

MARPLVPSSQKALLLELKGLQEEPVEGFRVTLVDEGDLYNWEVAIFGPPNTYYEGGYFKARLKFPIDYPYSPPAFRFLTKMWHPNIYETGDVCISILHPPVDDPQSGELPSERWNPTQNVRTILLSVISLLNEPNTFSPANVDASVMYRKWKESKGKDREYTDIIRKQVLGTKVDAERDGVKVPTTLAEYCVKTKAPAPDEGSDLFYDDYYEDGEVEEADSCFGDEEDDSGTEES
protein production: failed

SEEPPVREEEEEEGEEDEERDEVGPEGALGKSPFQLTAEDVYDISYLLGRELMALGSDPRVTQLQFKVVRVLEMLEALVNEGSLALEELKMERDHLRKEVEGLRRQSPPASGEVNLGPNKMVVDLTDPNRPRFTLQELRDVLQERNKLKSQLLVVQEELQCYKSGLIPPREGPGGRREKDAVVTSAKNAGRNKEEKTIIKKLFFFRSGKQT
protein production: failed

AEITEVRIYKSKGNGSVKAYASVSFDNEFVVKGLKVVEGEKGLWVSMPSRRMKDGSFQDVFHPVSREARDKIVDAVLKAYQEQE
protein production: failed
